Experimental data: patent publication US20260022175A1 (Chugai, published 2026)

T1: hFcγRIIaH on hFcγRIIaH-expressing Jurkat cells (human, UniProt P12318 34-317)
T1 sequence (looked up): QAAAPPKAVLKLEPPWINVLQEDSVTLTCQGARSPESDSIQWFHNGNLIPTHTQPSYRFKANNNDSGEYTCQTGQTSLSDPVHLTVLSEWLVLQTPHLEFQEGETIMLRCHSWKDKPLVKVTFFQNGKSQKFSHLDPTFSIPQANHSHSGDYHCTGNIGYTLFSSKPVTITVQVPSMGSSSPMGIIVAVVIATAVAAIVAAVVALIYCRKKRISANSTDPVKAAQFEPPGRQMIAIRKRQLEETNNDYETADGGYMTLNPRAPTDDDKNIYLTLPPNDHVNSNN

T2: human FcγRIIa H extracellular domain (human, UniProt P12318 34-217)
T2 construct: extracellular domain; also called hFcγR IIa H
T2 sequence (looked up): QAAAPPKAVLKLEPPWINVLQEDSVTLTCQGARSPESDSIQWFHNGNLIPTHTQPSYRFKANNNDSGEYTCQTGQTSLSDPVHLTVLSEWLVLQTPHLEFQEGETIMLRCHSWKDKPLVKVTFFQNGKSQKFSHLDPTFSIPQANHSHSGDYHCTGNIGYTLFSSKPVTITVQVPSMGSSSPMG

T3: human FcγRIIa R extracellular domain (human, UniProt P12318 34-217)
T3 construct: extracellular domain; also called hFcγR IIa R
T3 sequence (looked up): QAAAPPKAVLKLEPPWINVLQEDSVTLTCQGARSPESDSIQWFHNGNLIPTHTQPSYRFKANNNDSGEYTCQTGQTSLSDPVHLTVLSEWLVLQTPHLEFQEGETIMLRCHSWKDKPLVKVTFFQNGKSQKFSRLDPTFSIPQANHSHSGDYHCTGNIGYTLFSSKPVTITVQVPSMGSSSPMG

T4: human FcγRIIb extracellular domain (human, UniProt P31994 43-217)
T4 construct: extracellular domain; also called hFcγR IIb
T4 sequence (looked up): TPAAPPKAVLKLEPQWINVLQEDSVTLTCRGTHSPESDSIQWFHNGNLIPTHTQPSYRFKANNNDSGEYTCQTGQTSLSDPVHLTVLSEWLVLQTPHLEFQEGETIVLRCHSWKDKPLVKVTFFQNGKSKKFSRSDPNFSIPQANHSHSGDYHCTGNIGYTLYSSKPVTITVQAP


Assays:
[1] = target: hFcγRIIIaV on hFcγRIIIaV-expressing Jurkat cells (human, UniProt P08637 17-254); test: cell-based or functional assay
hFcγRIIIaV on hFcγRIIIaV-expressing Jurkat cells, sequence (P08637 17-254, form in doubt): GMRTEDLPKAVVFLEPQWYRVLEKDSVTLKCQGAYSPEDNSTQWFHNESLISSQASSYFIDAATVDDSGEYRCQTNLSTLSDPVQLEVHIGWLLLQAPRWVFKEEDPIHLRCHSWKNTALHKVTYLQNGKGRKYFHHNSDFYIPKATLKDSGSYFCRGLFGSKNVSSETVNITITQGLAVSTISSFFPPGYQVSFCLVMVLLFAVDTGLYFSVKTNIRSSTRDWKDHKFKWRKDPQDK

[2] = target: T1, hFcγRIIaH on hFcγRIIaH-expressing …; test: cell-based or functional assay
[3] = target: T5, human FcγRIa extracellular domain (human, UniProt P12314 16-292); test: SPR Biacore 8K+; KD of G1d divided by KD of this antibody;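 note: antibodies captured on an anti-Fab-kappa streptavidin chip, soluble FcγR ectodomains flowed over, KD by steady-state fit for FcγRIIb and Langmuir kinetic model for the other receptors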
T5 construct: extracellular domain; also called hFcγR Ia; hFcγRIa
T5 sequence (P12314 16-292): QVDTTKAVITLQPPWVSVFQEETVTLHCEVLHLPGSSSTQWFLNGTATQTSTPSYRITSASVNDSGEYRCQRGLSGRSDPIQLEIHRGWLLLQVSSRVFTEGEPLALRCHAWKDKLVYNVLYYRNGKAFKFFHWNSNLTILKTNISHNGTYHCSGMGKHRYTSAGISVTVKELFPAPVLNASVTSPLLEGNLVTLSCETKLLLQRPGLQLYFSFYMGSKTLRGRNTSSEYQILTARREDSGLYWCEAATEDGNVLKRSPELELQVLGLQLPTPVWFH
Experimental: (§1) The interaction between the produced antibodies and human FcγRs was analyzed using Biacore 8K+ by the method below. For the running buffer, 50 mM Na-Phosphate, 150 mM NaCl, and 0.05% Tween20 (pH 7.4) was used, and measurement was performed at 25° C. The sensor chip used was a Series S SA chip (GE Healthcare) onto which CaptureSelect Human Fab-kappa Kinetics Biotin Conjugate (Thermo Fisher Scientific) was immobilized. An antibody of interest was captured onto this chip, and each FcγR diluted with the running buffer was allowed to interact with it. The chip was regenerated using 10 mM Glycine-HCl (pH 1.5), and repeatedly used to capture antibodies and perform measurement. The dissociation constants KD (mol/L) of each antibody for FcγRs were calculated using Biacore Insight Evaluation Software, with a steady state affinity model for the dissociation constant for FcγRIIb and a 1:1 Langmuir binding model for the dissociation constants for the other FcγRs (Table 48).

[4] = target: T2, human FcγRIIa H extracellular domain; test: as above
Experimental: as §1

[5] = target: T3, human FcγRIIa R extracellular domain; test: as above
Experimental: as §1

[6] = target: T4, human FcγRIIb extracellular domain; test: as above
Experimental: as §1

[7] = target: T6, human FcγRIIIa F extracellular domain (human, UniProt P08637 17-208); test: as above
T6 construct: extracellular domain; also called hFcγR IIIa F
T6 sequence (P08637 17-208): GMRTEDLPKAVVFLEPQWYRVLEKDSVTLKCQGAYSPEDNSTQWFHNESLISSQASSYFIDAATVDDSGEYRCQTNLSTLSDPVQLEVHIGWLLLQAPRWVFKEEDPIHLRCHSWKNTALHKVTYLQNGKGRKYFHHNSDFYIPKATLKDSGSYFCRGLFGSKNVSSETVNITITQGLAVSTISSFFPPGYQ
Experimental: as §1

[8] = target: T7, human FcγRIIIa V extracellular domain (human, UniProt P08637 17-208); test: as above
T7 construct: extracellular domain; also called hFcγR IIIa V
T7 sequence (P08637 17-208 F176V limits assumed): as the sequence (P08637 17-208) above, with F160V counted along it
Experimental: as §1

[9] = target: T2, human FcγRIIa H extracellular domain; test: SPR Biacore 8K+; KD for FcγRIIb divided by KD for this FcγR;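 note: antibodies captured on an anti-human Fab kappa SA chip with soluble human FcγR ectodomains flowed over, FcγRIIb KD from steady-state fit, other FcγR KD from Langmuir model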
Experimental: as §1

[10] = target: T3, human FcγRIIa R extracellular domain; test: as above
Experimental: as §1

[11] = target: T6, human FcγRIIIa F extracellular domain; test: as above
Experimental: as §1

[12] = target: T7, human FcγRIIIa V extracellular domain; test: as above
Experimental: as §1

[13] = target: T5, human FcγRIa extracellular domain; test: SPR Biacore 8K+, antibody captured, FcγR as analyte, 1:1 Langmuir model;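 note: antibodies captured on a streptavidin chip through a biotinylated anti-human Fab kappa reagent, with FcγR extracellular domains injected in pH 7.4 phosphate buffer at 25 °C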
Experimental: as §1

[14] = target: T2, human FcγRIIa H extracellular domain; test: as above
Experimental: as §1

[15] = target: T3, human FcγRIIa R extracellular domain; test: as above
Experimental: as §1

[16] = target: T6, human FcγRIIIa F extracellular domain; test: as above
Experimental: as §1

[17] = target: T7, human FcγRIIIa V extracellular domain; test: as above
Experimental: as §1

[18] = target: T4, human FcγRIIb extracellular domain; test: SPR Biacore 8K+, antibody captured, FcγR as analyte, steady state affinity model

EC50 value (hFcγRIIIaV ADCC Reporter Bioassay, Hepa1-6/hEREG target cells) [1] [µg/mL]	EC50 value (hFcγRIIaH ADCP Reporter Bioassay, Hepa1-6/hEREG target cells) [2] [µg/mL]	Relative value to KD between G1d and hFcgRs [3]	Relative value to KD between G1d and hFcgRs [4]	Relative value to KD between G1d and hFcgRs [5]	Relative value to KD between G1d and hFcgRs [6]	Relative value to KD between G1d and hFcgRs [7]	Relative value to KD between G1d and hFcgRs [8]	A/I ratio (KD for FcγRIIb divided by KD for each FcγR) [9]	A/I ratio (KD for FcγRIIb divided by KD for each FcγR) [10]	A/I ratio (KD for FcγRIIb divided by KD for each FcγR) [11]	A/I ratio (KD for FcγRIIb divided by KD for each FcγR) [12]	Kd [13] [nM]	Kd [14] [nM]	Kd [15] [nM]	Kd [16] [nM]	Kd [17] [nM]	Kd [18] [nM]	Binder
0.00135	0.0218	3.4	14.7	49	22.8	460	215	5.8	13	68.4	264	0.0264	76.4	33.8	6.43	1.67	440	H240-Kn120/L73-k0//H240-Hl068/L73-k0 (antibody, human IgG1, kappa, also called EGL-ART2; ART2) heavy 1: QDQLVQSGAEVKKPGASVKVSCKASGFNIKDTYIQWVRQAPGQGLEWMGRIDPLRKQTKYREKFEGRVTITADTSTNTAYMELSSLRSEDTAVYYCVRSGREFDYWGQGTLVTVSSASTKGPSVFPLAPSSKSTSGGTAALGCLVKDYFPEPVTVSWNSGALTSGVHTFPAVLQSSGLYSLSSVVTVPSSSLGTQTYICNVNHKPSNTKVDKKVEPKSCDKTHTCPPCPAPEYYWGPMVFLFPPKPKDTLMISRTPEVTCVVVDVSDEDPEVKFNWYVDGVEVHNAKTKPREEQYNATYRVVSVLTVLHQDWLNGKEYKCKVSNKDLPAPIEKTISKAKGQPREPQVCTLPPSRDELTKNQVSLWCLVKGFYPSDIAVEWESNGQPENNYKTTPPVLDSDGSFFLYSKLTVDKSRWQQGNVFSCSVMHEALHNHYTQKSLSLSP heavy 2: QDQLVQSGAEVKKPGASVKVSCKASGFNIKDTYIQWVRQAPGQGLEWMGRIDPLRKQTKYREKFEGRVTITADTSTNTAYMELSSLRSEDTAVYYCVRSGREFDYWGQGTLVTVSSASTKGPSVFPLAPSSKSTSGGTAALGCLVKDYFPEPVTVSWNSGALTSGVHTFPAVLQSSGLYSLSSVVTVPSSSLGTQTYICNVNHKPSNTKVDKKVEPKSCDKTHTCPPCPAPELLGGPSVFLFPPKPKDTLMISRTPEVTCVVVDVSHEEPEVKFNWYVDGVEVHNAKTKPREEQYNSTYRVVSVLTVLHQDWLNGKEYKCKVSNDALPKPIEETISKAKGQPREPQVYTLPPSRCELTKNQVSLSCAVKGFYPSDIAVEWESNGQPENNYKTTPPVLDSDGSFFLVSKLTVDKSRWQQGNVFSCSVMHEALHNHYTQKSLSLSP light: DIQMTQSPSSLSASVGDRVTITCRASQDIHKYIAWYQQKPGQAPRLLIQYTSTLQPGVPSRFSGSGSGTDYTFTISSLQPEDIATYYCLQYEQLRTFGGGTKVEIKRTVAAPSVFIFPPSDEQLKSGTASVVCLLNNFYPREAKVQWKVDNALQSGNSQESVTEQDSKDSTYSLSSTLTLSKADYEKHKVYACEVTHQGLSSPVTKSFNRGEC
0.000716	0.0353	3	4.3	1.6	0.8	1170	323	47.4	12.4	4950	11300	0.0302	264	1010	2.53	1.11	12500	H240-Kn125/L73-k0//H240-Hl076/L73-k0 (antibody, human IgG1, kappa, Anti-human Epiregulin heterodimerized IgG1 Fc variant; also called EGL-ART1; ART1) heavy 1: QDQLVQSGAEVKKPGASVKVSCKASGFNIKDTYIQWVRQAPGQGLEWMGRIDPLRKQTKYREKFEGRVTITADTSTNTAYMELSSLRSEDTAVYYCVRSGREFDYWGQGTLVTVSSASTKGPSVFPLAPSSKSTSGGTAALGCLVKDYFPEPVTVSWNSGALTSGVHTFPAVLQSSGLYSLSSVVTVPSSSLGTQTYICNVNHKPSNTKVDKKVEPKSCDKTHTCPPCPAPEYQWGPMVFLFPPKPKDTLMISRTPEVTCVVVDVSDEEPEVKFNWYVDGVEVHNAKTKPREEQYNATYRVVSVLTVLHQDWLNGKEYKCKVSNKALPAPIEKTISKAKGQPREPQVCTLPPSRDELTKNQVSLWCLVKGFYPSDIAVEWESNGQPENNYKTTPPVLDSDGSFFLYSKLTVDKSRWQQGNVFSCSVMHEALHNHYTQKSLSLSP heavy 2: QDQLVQSGAEVKKPGASVKVSCKASGFNIKDTYIQWVRQAPGQGLEWMGRIDPLRKQTKYREKFEGRVTITADTSTNTAYMELSSLRSEDTAVYYCVRSGREFDYWGQGTLVTVSSASTKGPSVFPLAPSSKSTSGGTAALGCLVKDYFPEPVTVSWNSGALTSGVHTFPAVLQSSGLYSLSSVVTVPSSSLGTQTYICNVNHKPSNTKVDKKVEPKSCDKTHTCPPCPAPELLGGPSVFLFPPKPKDTLMISRTPEVTCVVVDVSHEEPEVKFNWYVDGVEVHNAKTKPREEQYNSTYRVVSVLTVLHQDWLNGKEYKCKVSNDALPMPIEETISKAKGQPREPQVYTLPPSRCELTKNQVSLSCAVKGFYPSDIAVEWESNGQPENNYKTTPPVLDSDGSFFLVSKLTVDKSRWQQGNVFSCSVMHEALHNHYTQKSLSLSP light: DIQMTQSPSSLSASVGDRVTITCRASQDIHKYIAWYQQKPGQAPRLLIQYTSTLQPGVPSRFSGSGSGTDYTFTISSLQPEDIATYYCLQYEQLRTFGGGTKVEIKRTVAAPSVFIFPPSDEQLKSGTASVVCLLNNFYPREAKVQWKVDNALQSGNSQESVTEQDSKDSTYSLSSTLTLSKADYEKHKVYACEVTHQGLSSPVTKSFNRGEC
